This series concerns Tn5 transposase hyperactive mutant EK54/MA56/LP372 (EK45/MA56/LP372 [sic] in example) E54K,M56A,L372P (Escherichia coli (transposon Tn5)?). Kind of series: cell_activity. The note with it: 1 µl electroporated into E. coli MG1655, KanR colonies.

As for “linearized plasmid with mosaic-end kanamycin transposon and donor backbone”, the activity (with Mg2+) was determined as 6900 CFU.

“released transposable element (PvuII cut) with kanamycin resistance cassette flanked by inverted mosaic ends” returned an activity (no Mg2+, synaptic complex formed in vitro, with Mg2+ 3.9e3, 10 µl dialyzed without Mg2+ 5.5e5) of 53000 CFU.

“supercoiled plasmid with mosaic-end kanamycin transposon and donor backbone” registered an activity (with Mg2+, none without transposase) of 1600 CFU.

These data come from patent US6159736.
